Target: T1, CD37 antigen (cellular CD37 on Ramos Burkitt lymphoma cells; also on RPMI 8226 multiple myeloma cells) (human, UniProt P11049 1-281)
T1 sequence (looked up): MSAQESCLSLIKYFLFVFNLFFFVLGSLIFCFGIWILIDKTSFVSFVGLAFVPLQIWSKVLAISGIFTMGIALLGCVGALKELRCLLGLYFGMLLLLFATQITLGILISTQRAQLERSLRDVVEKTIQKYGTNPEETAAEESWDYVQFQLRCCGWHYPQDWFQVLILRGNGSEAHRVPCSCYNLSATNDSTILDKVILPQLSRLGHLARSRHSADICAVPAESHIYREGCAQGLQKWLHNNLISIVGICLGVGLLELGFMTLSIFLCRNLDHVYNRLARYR
Test: cell-based or functional assay

B1: Fc-engineered chimeric anti-CD37 antibody A2 (S239D/I332E) (antibody, human IgG1, kappa)
heavy: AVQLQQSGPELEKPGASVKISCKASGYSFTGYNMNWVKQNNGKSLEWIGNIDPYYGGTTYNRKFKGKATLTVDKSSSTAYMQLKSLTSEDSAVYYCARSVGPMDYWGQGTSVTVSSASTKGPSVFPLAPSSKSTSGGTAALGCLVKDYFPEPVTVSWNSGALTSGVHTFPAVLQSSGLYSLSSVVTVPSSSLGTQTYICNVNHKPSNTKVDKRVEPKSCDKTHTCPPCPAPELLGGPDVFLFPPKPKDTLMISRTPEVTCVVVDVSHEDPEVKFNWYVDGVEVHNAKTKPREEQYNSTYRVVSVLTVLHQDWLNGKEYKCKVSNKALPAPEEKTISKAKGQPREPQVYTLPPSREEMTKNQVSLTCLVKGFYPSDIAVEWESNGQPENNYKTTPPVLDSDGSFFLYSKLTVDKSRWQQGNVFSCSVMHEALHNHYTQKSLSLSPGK
light: DIQMTQSPASLSASVGETVTITCRTSENVYSYLAWYQQKQGKSPQLLVSFAKTLAEGVPSRFSGSGSGTQFSLKISSLQPEDSGSYFCQHHSDNPWTFGGGTELEIKRTVAAPSVFIFPPSDEQLKSGTASVVCLLNNFYPREAKVQWKVDNALQSGNSQESVTEQDSKDSTYSLSSTLTLSKADYEKHKVYACEVTHQGLSSPVTKSFNRGEC
- ADCC EC50 on RPMI 8226 multiple myeloma cells: ~0.025 µg/mL

B2: Fc-engineered humanized anti-CD37 antibody B2 (S239D/I332E) (antibody, human IgG1, kappa, V domains shown)
VH: AVQLVQSGAEVKKPGSSVKVSCKASGYSFTGYNMNWVRQAPGQGLEWMGNIDPYYGGTTYNRKFKGRVTLTVDKSSSTAYMELSSLRSEDTAVYYCARSVGPMDYWGQGTLVTVSS
VL: DIQMTQSPSSLSASVGDRVTITCRTSENVYSYLAWYQQKPGKAPKLLVSFAKTLAEGVPSRFSGSGSGTDFTLTISSLQPEDFATYFCQHHSDNPWTFGQGTKVEIKR
- ADCC EC50 on RPMI 8226 multiple myeloma cells: ~0.025 µg/mL

From patent publication US20100189722A1 (Boehringer Ingelheim, published 2010)
